# Laboratory results as given in PMC5578167.
# What was measured:
# [1] = biological target: viral CC chemokine inhibitor (vCCI), rabbitpox virus (rabbitpox virus); assay: ITC
# [2] = biological target: viral CC chemokine inhibitor (vCCI), rabbitpox, produced and refolded from E. coli (rabbitpox virus); assay: ITC
Binder,stoichiometry N [1],Kd [2] [nM]
"viral Macrophage Inflammatory Protein-II (vMIP-II), human herpesvirus 8 (natural protein) GDTLGASWHRPDKCCLGYQKRPLPQVLLSSWYPTSQLCSKPGVIFLTKRGRQVCADKSKDWVKKLMQQLPVTAR",0.759,
viral Macrophage Inflammatory Protein-II (vMIP-II) (natural protein) GDTLGASWHRPDKCCLGYQKRPLPQVLLSSWYPTSQLCSKPGVIFLTKRGRQVCADKSKDWVKKLMQQLPVTAR,,< 0.1
